Measurements taken from the supplement of paper PMC9170038.

Test system: MS2 coat protein
Assay: apparent KD of MS2 coat protein; designed switch direction (-1 OFF switch, 1 ON switch): -1; higher = weaker reporter binding
Outline: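 An oligonucleotide input, 200 uM small-molecule ligand, or no input was present during titration of SNAP-549-labelled MS2 coat protein, which was doubled from 0.7 or 1.5 nM to 3 µM. Designed RNA switches had been transcribed on Illumina chips by stalled E. coli RNA polymerase. Apparent KD per design is the median over clusters of curves fitted to normalised cluster fluorescence.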

[1] = Eterna round: R95, input ligand: microRNA oligo, concentration not stated
[2] = Eterna round: R95, input ligand: FMN 200 uM
[3] = Eterna round: R95, input ligand: none

Sequence | apparent KD of MS2 coat protein (input ligand: FMN 200 uM) [µM] | apparent KD of MS2 coat protein (input ligand: none) [µM] | apparent KD of MS2 coat protein [1] [µM] | apparent KD of MS2 coat protein [2] [µM] | apparent KD of MS2 coat protein [3] [µM]
AACGAAGCAGGAUAUACAUGAGGAUCACCCAUGUGCUUGCAUGGCGUGGGAAGUCAUAGUAGAAGGGCUACGCC [EX3 #62] (Eterna round: R97, puzzle: Exclusion 3) | 0.0536 | 0.0221 |  |  | 
GCUUGUCUUUAGGAUAUCGUGAGGCCCUUCAUACGAGAAGGAAAGACAUGAGGAUCACCCAUGUCGGGUAUCAC [Eternabot (L1) Solution 28] (Eterna round: R97, puzzle: Exclusion 6) | 0.0518 | 0.0208 |  |  | 
AAUAACAGAGGAUAUACUGUUUUAUGUGUUUGUUGUUUUAAACAUGAGGAUCACCCAUGUAGAAGGCUGAAUGA [JMF 60] (puzzle: Exclusion 2) |  |  | 0.0218 |  | 
UUUUGCACGCUGCGGUCCUACAUGAGGAUCACCCAUGUGGUCUGGUGGCGUGGGUCGCCGGACUUGGCUCGUCUUGA [salish99_S_TOV1_R5_037] (Eterna round: R97, puzzle: Sensor, turn-off variant 1) | 0.0175 | 0.0182 |  |  | 
AUCGUGAAGAAGGAUAUGGGCCCGGUAAAACGACUAGAAGGUCUGACAUGAGGAUCACCCAUGUGAUACCAAAA [Veve] (puzzle: Exclusion 6) |  |  | 0.0429 | 0.0341 | 0.0353
CACUUACAUGAGGAUCACCCAUGUGAGGAUAUCGUGACCAGACGAGAAGUCUAUGUCACGAGAAGGUACAUGGG [Exclusion 1 (Mod 1.1 solution 97 by Eternabot)] (Eterna round: R97, puzzle: Exclusion 1) | 0.0933 | 0.574 |  |  | 
UUUACAAGCUUUAGAUCCCACAUGAGGAUCACCCAUGUUCCUGGCCGUGAGGCUAGGUAAACUAAUGCUCGUCUUAU [JL TOV1 3.65] (Eterna round: R97, puzzle: Sensor, turn-off variant 1) | 0.197 | 0.244 |  |  | 
UUAUAUAGUGUGAGGAUAUGCUGGUCCUUGGAUCAGCAGAAGGCACAUGAGGAUCACCCAUGUAGUUAAAUAUA [Mat - Exclusion 4 - JL Mod - D18] (puzzle: Brourd's mod of Exclusion 4) |  |  | 0.0311 | 0.252 | 0.0395
AAACUCCGGGUGAGGAUAUCUAGCAUCAAGACGCGAGAGAAGGCACUUGAGGAUCACCCAAGUACGUGGCCUAA [Quare] (Eterna round: R97, puzzle: Brourd's mod of Exclusion 4) | 0.153 | 0.0999 |  |  | 
GAUCAGCUUGUGAGGAUAUCCGGGCAUAAAGGCUAGGAGAAGGUACAUGAGGAUCACCCAUGUAGAGUCCUGGG [Bisoraxe] (puzzle: Brourd's mod of Exclusion 4) |  |  | 0.0412 |  | 
GGUUGGCGAGGAUAUACAUGAGGAUCACCCAUGUGAGAGAUAAAAGUGAGGAAGAAAAGUAGAAGGCGCUGACG [salish99_ex3_r3_012] (puzzle: Exclusion 3) |  |  | 0.0295 | 0.155 | 0.069
AUAAAACGAGGAUAUGCUGGGCUUCUGUGAUGCAUAUGCUCACAUGAGGAUCACCCAUGUAGAAGGUGUAAAAU [Laaceve] (puzzle: Exclusion 2) |  |  | 0.22 |  | 
GUGAGUAGUCAGGAUAUGCUGUACAAAAGUACAGCAGAAGGGACUACAUGAGGAUCACCCAUGUUUACUUCAUG [Omei Ex6 B5] (Eterna round: R97, puzzle: Exclusion 6) | 0.522 | 0.609 |  |  | 
UAGAGACAUGAGGAUCACCCAUGUGAGGAUAUAGAGAAAGAUUGCGAGAGGGAGAGGACUAGAAGGCACAGUGA [JR_Exclu1_Sub033] (puzzle: Exclusion 1) |  |  | 0.0488 | 0.0391 | 0.0519
CCAAGCUACUUCAUUAUCCACAUGAGGAUCACCCAUGUCUAGGCAAUUAUGACCUGCCCGUCAGGAGCUCGUCUUAU [Sensor-V1 #40] (Eterna round: R97, puzzle: Sensor, turn-off variant 1) | 0.0351 | 0.0287 |  |  | 
GACCGGACGUGGUCAGGUAACAUGAGGAUCACCCAUGUAGGUCUAAGAACAAGCCUUUUGUACGCUCGUCUUAUAUU [JR_SV3TOV1_Sub060] (puzzle: Sensor v3, turn-off variant 1) |  |  | 0.0468 | 0.0461 | 0.0558
GAUUAGACUAAGGAUAUUACGAGCUCUGUGCCGUGAGAAGGUAGCACAUGAGGAUCACCCAUGUGACCAUCAUG [Eternabot (L2) Solution 81] (Eterna round: R97, puzzle: Exclusion 6) | 0.18 | 0.0586 |  |  | 
UUUAAACAUGAGGAUCACCCAUGUUAGGAUAUACGCAUGCAGACACGCACGGAUGCAAGUAGAAGGAACCAUGC [Design #6] (Eterna round: R97, puzzle: Exclusion 1) | 0.0279 | 0.0313 |  |  | 
